Measurements as given in patent US20250326839A1 (VIGIL NEUROSCIENCE, published 2025).

T1: human TREM2 (human, UniProt Q9NZC2 19-174, limits assumed)
T1 construct: also called triggering receptor expressed on myeloid cells 2
T1 sequence: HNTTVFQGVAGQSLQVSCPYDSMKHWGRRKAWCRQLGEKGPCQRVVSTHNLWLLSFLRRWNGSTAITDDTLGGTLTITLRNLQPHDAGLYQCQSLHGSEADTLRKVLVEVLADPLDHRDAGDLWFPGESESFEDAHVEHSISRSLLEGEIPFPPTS


What was measured:
human TREM2 [1] = molecular target: T1, human TREM2; test: 1st screen, 110 nM Ab
human TREM2 [2] = molecular target: T1, human TREM2; test: 2nd screen, 100 nM

Row | Binder | Binding Signal (human TREM2 [1]) | Binding Signal (human TREM2 [2])
1 | V33 (antibody, V domains shown, also called 6E7 variant V33; LV-16/HV-203) VH: EVQLVQSGAEVKKPGESLKISCKGSGYSFTSYWIAWVRQMPGKGLEWMGIIYPGDSDTRYSPSFQGQVTISADKSISTAYLQWSSLKASDTAMYFCARQRTFYGDSSDYFDYWGQGTLVTVSS VL: DIQMTQSPSSVSASVGDRVTITCRASQGISSWLAWYQQKPGKAPKLLIYAASSLQNGVPSRFSGSGSGTDFTLTISSLQPEDFATYFCQQADSFPRTFGQGTKLEIK | 0.23 fold over 6E7 parental antibody | 0.34 fold over 6E7 parental antibody
2 | V46 (antibody, V domains shown, also called 6E7 variant V46) VH: EVQLVQSGAEVKKPGESLKISCKGSGYSFTSYWIAWVRQMPGKGLEWMGIIYPGDSDTRYSPSFQGQVTISADKSISTAYLQWSSLKASDTAMYFCARQRTFYYDSSDYFDYWGQGTLVTVSS VL: DIQMTQSPSSVSASVGDRVTITCRASQGISSWLAWYQQKPGKAPKLLIYAASTLQNGVPSRFSGSGSGTDFTLTISSLQPEDFATYFCQQADSFPRTFGQGTKLEIK | 0.83 fold over 6E7 parental antibody | 0.96 fold over 6E7 parental antibody
3 | V43 (antibody, V domains shown, also called 6E7 variant V43) VH: EVQLVQSGAEVKKPGESLKISCKGSGYSFTSYWIAWVRQMPGKGLEWMGIIYPGDSGTRYSPSFQGQVTISADKSISTAYLQWSSLKASDTAMYFCARQRTFYYDSSDYFDYWGQGTLVTVSS VL: DIQMTQSPSSVSASVGDRVTITCRASQGISSWLAWYQQKPGKAPKLLIYAASSLQNGVPSRFSGSGSGTDFTLTISSLQPEDFATYFCQQADSFPRTFGQGTKLEIK | 0.2 fold over 6E7 parental antibody | 0.33 fold over 6E7 parental antibody
4 | V34 (antibody, V domains shown, also called 6E7 variant V34) VH: EVQLVQSGAEVKKPGESLKISCKGSGYSFTSYWIAWVRQMPGKGLEWMGIIYPGDSDTRYSPSFQGQVTISADKSISTAYLQWSSLKASDTAMYFCARQRTFYYDSSDYFDYWGQGTLVTVSS VL: DIQMTQSPSSVSASVGDRVTITCRASQGISSWLAWYQQKPGKAPKLLIYAASSLQDGVPSRFSGSGSGTDFTLTISSLQPEDFATYFCQQADSFPRTFGQGTKLEIK | 0.34 fold over 6E7 parental antibody | 1.02 fold over 6E7 parental antibody
5 | V45 (antibody, V domains shown, also called 6E7 variant V45) VH: EVQLVQSGAEVKKPGESLKISCKGSGYSFTSYWIAWVRQMPGKGLEWMGIIYPGDSDTRYSPSFQGQVTISADKSISTAYLQWSSLKASDTAMYFCARQRTFYYDSSDYFDYWGQGTLVTVSS VL: DIQMTQSPSSVSASVGDRVTITCRASQGISSFLAWYQQKPGKAPKLLIYAASSLQNGVPSRFSGSGSGTDFTLTISSLQPEDFATYFCQQADSFPRTFGQGTKLEIK | 0.43 fold over 6E7 parental antibody | 0.53 fold over 6E7 parental antibody
6 | V42 (antibody, V domains shown, also called 6E7 variant V42) VH: EVQLVQSGAEVKKPGESLKISCKGSGYSFTSAWIAWVRQMPGKGLEWMGIIYPGDSDTRYSPSFQGQVTISADKSISTAYLQWSSLKASDTAMYFCARQRTFYYDSSDYFDYWGQGTLVTVSS VL: DIQMTQSPSSVSASVGDRVTITCRASQGISSWLAWYQQKPGKAPKLLIYAASSLQNGVPSRFSGSGSGTDFTLTISSLQPEDFATYFCQQADSFPRTFGQGTKLEIK | 0.45 fold over 6E7 parental antibody | 0.41 fold over 6E7 parental antibody
7 | V35 (antibody, V domains shown, also called 6E7 variant V35) VH: EVQLVQSGAEVKKPGESLKISCKGSGYSFTSYWIAWVRQMPGKGLEWMGIIYPGDSDTRYSPSFQGQVTISADKSISTAYLQWSSLKASDTAMYFCARQRTFYYDSSDYFDYWGQGTLVTVSS VL: DIQMTQSPSSVSASVGDRVTITCRASQGISSWLAWYQQKPGKAPKLLIYAASSLQNGVPSRFSGSGSGTDFTLTISSLQPEDFATYFCQQAYSFPRTFGQGTKLEIK | 0.21 fold over 6E7 parental antibody | 0.29 fold over 6E7 parental antibody
8 | V54 (antibody, V domains shown, also called 6E7 variant V54) VH: EVQLVQSGAEVKKPGESLKISCKGSGYSFTSQWIAWVRQMPGKGLEWMGIIYPGDSDTRYSPSFQGQVTISADKSISTAYLQWSSLKASDTAMYFCARQRTFYYDSSDYFDYWGQGTLVTVSS VL: DIQMTQSPSSVSASVGDRVTITCRASQGISSWLAWYQQKPGKAPKLLIYAASSLQNGVPSRFSGSGSGTDFTLTISSLQPEDFATYFCQQADSFPRTFGQGTKLEIK | 0.55 fold over 6E7 parental antibody | 0.54 fold over 6E7 parental antibody
9 | V44 (antibody, V domains shown, also called 6E7 variant V44; LV-16/HV-204) VH: EVQLVQSGAEVKKPGESLKISCKGSGYSFTSYWIAWVRQMPGKGLEWMGIIYPSDSDTRYSPSFQGQVTISADKSISTAYLQWSSLKASDTAMYFCARQRTFYYDSSDYFDYWGQGTLVTVSS VL: DIQMTQSPSSVSASVGDRVTITCRASQGISSWLAWYQQKPGKAPKLLIYAASSLQNGVPSRFSGSGSGTDFTLTISSLQPEDFATYFCQQADSFPRTFGQGTKLEIK | 0.65 fold over 6E7 parental antibody | 0.52 fold over 6E7 parental antibody
10 | V55 (antibody, V domains shown, also called 6E7 variant V55) VH: EVQLVQSGAEVKKPGESLKISCKGSGYSFTSYWIAWVRQMPGKGLEWMGIIYPGDSDTIYSPSHQGQVTISADKSISTAYLQWSSLKASDTAMYFCARQRTFYYDSSDYFDYWGQGTLVTVSS VL: DIQMTQSPSSVSASVGDRVTITCRASQGISSWLAWYQQKPGKAPKLLIYAASSLQNGVPSRFSGSGSGTDFTLTISSLQPEDFATYFCQQADSFPRTFGQGTKLEIK | 0.24 fold over 6E7 parental antibody | 0.66 fold over 6E7 parental antibody
11 | V47 (antibody, V domains shown, also called 6E7 variant V47) VH: EVQLVQSGAEVKKPGESLKISCKGSGYSFTSYWIAWVRQMPGKGLEWMGIIYPGDSDTRYSPSFQGQVTISADKSISTAYLQWSSLKASDTAMYFCARQRTFYYDSSDYFDYWGQGTLVTVSS VL: DIQMTQSPSSVSASVGDRVTITCRASQGISSWLAWYQQKPGKAPKLLIYAASSLQNGVPSRFSGSGSGTDFTLTISSLQPEDFATYFCQQADSFPMTFGQGTKLEIK | 0.42 fold over 6E7 parental antibody | 0.47 fold over 6E7 parental antibody

More lines, now with the values ahead:

Row | Binding Signal (human TREM2 [1]) | Binding Signal (human TREM2 [2]) | Binder
12 | 0.44 fold over 6E7 parental antibody | 0.43 fold over 6E7 parental antibody | V68 (antibody, V domains shown, also called 6E7 variant V68) VH: EVQLVQSGAEVKKPGESLKISCKGSGYSFTSYWIAWVRQMPGKGLEWMGIIYPGDSDTRYSPSFQGQVTISADKSISTAYLQWSSLKASDTAMYFCARQRTFRYDSSDYFDYWGQGTLVTVSS VL: DIQMTQSPSSVSASVGDRVTITCRASQGISSWLAWYQQKPGKAPKLLIYAASSLQNGVPSRFSGSGSGTDFTLTISSLQPEDFATYFCQQADSFPRTFGQGTKLEIK
13 | 0.23 fold over 6E7 parental antibody | 0.59 fold over 6E7 parental antibody | V56 (antibody, V domains shown, also called 6E7 variant V56) VH: EVQLVQSGAEVKKPGESLKISCKGSGYSFTSYWIAWVRQMPGKGLEWMGIIYPGDSDTRYQPSFQGQVTISADKSISTAYLQWSSLKASDTAMYFCARQRTFYYDSSDYFDYWGQGTLVTVSS VL: DIQMTQSPSSVSASVGDRVTITCRASQGISSWLAWYQQKPGKAPKLLIYAASSLQNGVPSRFSGSGSGTDFTLTISSLQPEDFATYFCQQADSFPRTFGQGTKLEIK
14 | 0.84 fold over 6E7 parental antibody | 0.85 fold over 6E7 parental antibody | V57 (antibody, V domains shown, also called 6E7 variant V57; LV-203/HV-15) VH: EVQLVQSGAEVKKPGESLKISCKGSGYSFTSYWIAWVRQMPGKGLEWMGIIYPGDSDTRYSPSFQGQVTISADKSISTAYLQWSSLKASDTAMYFCARQRTFYYDSSDYFDYWGQGTLVTVSS VL: DIQMTQSPSSVSASVGDRVTITCAASQGISSWLAWYQQKPGKAPKLLIYAASSLQNGVPSRFSGSGSGTDFTLTISSLQPEDFATYFCQQADSFPRTFGQGTKLEIK
15 | 0.28 fold over 6E7 parental antibody | 0.68 fold over 6E7 parental antibody | V58 (antibody, V domains shown, also called 6E7 variant V58) VH: EVQLVQSGAEVKKPGESLKISCKGSGYSFTSYWIAWVRQMPGKGLEWMGIIYPGDSDTRYSPSFQGQVTISADKSISTAYLQWSSLKASDTAMYFCARQRTFYYDSSDYFDYWGQGTLVTVSS VL: DIQMTQSPSSVSASVGDRVTITCRASQGISSWLAWYQQKPGKAPKLLIYKASSLQNGVPSRFSGSGSGTDFTLTISSLQPEDFATYFCQQADSFPRTFGQGTKLEIK
16 | 0.8 fold over 6E7 parental antibody | 0.84 fold over 6E7 parental antibody | V67 (antibody, V domains shown, also called 6E7 variant V67) VH: EVQLVQSGAEVKKPGESLKISCKGSGYSFTSYWIAWVRQMPGKGLEWMGMIYPGDSDTRYSPSFQGQVTISADKSISTAYLQWSSLKASDTAMYFCARQRTFYYDSSDYFDYWGQGTLVTVSS VL: DIQMTQSPSSVSASVGDRVTITCRASQGISSWLAWYQQKPGKAPKLLIYAASSLQNGVPSRFSGSGSGTDFTLTISSLQPEDFATYFCQQADSFPRTFGQGTKLEIK
17 | 0.25 fold over 6E7 parental antibody | 0.74 fold over 6E7 parental antibody | V66 (antibody, V domains shown, also called 6E7 variant V66) VH: EVQLVQSGAEVKKPGESLKISCKGSGTSFTSYWIAWVRQMPGKGLEWMGIIYPGDSDTRYSPSFQGQVTISADKSISTAYLQWSSLKASDTAMYFCARQRTFYYDSSDYFDYWGQGTLVTVSS VL: DIQMTQSPSSVSASVGDRVTITCRASQGISSWLAWYQQKPGKAPKLLIYAASSLQNGVPSRFSGSGSGTDFTLTISSLQPEDFATYFCQQADSFPRTFGQGTKLEIK
18 | 0.19 fold over 6E7 parental antibody | 0.6 fold over 6E7 parental antibody | V59 (antibody, V domains shown, also called 6E7 variant V59) VH: EVQLVQSGAEVKKPGESLKISCKGSGYSFTSYWIAWVRQMPGKGLEWMGIIYPGDSDTRYSPSFQGQVTISADKSISTAYLQWSSLKASDTAMYFCARQRTFYYDSSDYFDYWGQGTLVTVSS VL: DIQMTQSPSSVSASVGDRVTITCRASQGISSWLAWYQQKPGKAPKLLIYAASSLQNGVPSRFSGSGSGTDFTLTISSLQPEDFATYFCMQADSFPRTFGQGTKLEIK
19 | 0.79 fold over 6E7 parental antibody | 0.84 fold over 6E7 parental antibody | V70 (antibody, V domains shown, also called 6E7 variant V70; LV-204/HV-15) VH: EVQLVQSGAEVKKPGESLKISCKGSGYSFTSYWIAWVRQMPGKGLEWMGIIYPGDSDTRYSPSFQGQVTISADKSISTAYLQWSSLKASDTAMYFCARQRTFYYDSSDYFDYWGQGTLVTVSS VL: DIQMTQSPSSVSASVGDRVTITCRASQGISSWLAWYQQKPGKAPKLLIYAAGSLQNGVPSRFSGSGSGTDFTLTISSLQPEDFATYFCQQADSFPRTFGQGTKLEIK
20 | 0.41 fold over 6E7 parental antibody | 0.4 fold over 6E7 parental antibody | V69 (antibody, V domains shown, also called 6E7 variant V69) VH: EVQLVQSGAEVKKPGESLKISCKGSGYSFTSYWIAWVRQMPGKGLEWMGIIYPGDSDTRYSPSFQGQVTISADKSISTAYLQWSSLKASDTAMYFCARQRTFYYDSSDYFDYWGQGTLVTVSS VL: DIQMTQSPSSVSASVGDRVTITCRASQGISSYLAWYQQKPGKAPKLLIYAASSLQNGVPSRFSGSGSGTDFTLTISSLQPEDFATYFCQQADSFPRTFGQGTKLEIK
